The first assay concerns the target D25. The assay can be described thus: flow cytometry on cells (shotgun mutagenesis alanine scan, HEK293T). Conditions: read off a plot. On the technique in general: In flow cytometry, cells or beads pass a laser one at a time.
For “wildtype RSV F (RSV-A2) expressed on HEK-293T cells (from UniProt P03420) D385A”, the percent of parent was found to be 88 % WT.
Consider “wildtype RSV F (RSV-A2) expressed on HEK-293T cells (from UniProt P03420) F387A”, for which the percent of parent amounted to 74 % WT.
Turning to “wildtype RSV F (RSV-A2) expressed on HEK-293T cells (from UniProt P03420) G446A”, the percent of parent was determined as 90 % WT.
Still for that read-out and setting: under “wildtype RSV F (RSV-A2) expressed on HEK-293T cells (from UniProt P03420) K433A” stands 120 % WT; under “wildtype RSV F (RSV-A2) expressed on HEK-293T cells (from UniProt P03420) K465A”, 100 % WT.
Same read-out and setting: under “wildtype RSV F (RSV-A2) expressed on HEK-293T cells (from UniProt P03420) N388A” stands 74 % WT.
The same measure, in the same setting: the same measure for “wildtype RSV F (RSV-A2) expressed on HEK-293T cells (from UniProt P03420) N426A”: 230 % WT.

The target of another assay is Palivizumab. The assay is described as above. The conditions noted are these: read off a plot.
As for “wildtype RSV F (RSV-A2) expressed on HEK-293T cells (from UniProt P03420) D385A”, the percent of parent amounted to 140 % WT.
The same measure, in the same setting: the same measure for “wildtype RSV F (RSV-A2) expressed on HEK-293T cells (from UniProt P03420) F387A”: 150 % WT.
On the same count and under the same terms, the same measure for “wildtype RSV F (RSV-A2) expressed on HEK-293T cells (from UniProt P03420) G446A”: 70 % WT.
With “wildtype RSV F (RSV-A2) expressed on HEK-293T cells (from UniProt P03420) K433A”, the percent of parent was determined as 150 % WT.
With “wildtype RSV F (RSV-A2) expressed on HEK-293T cells (from UniProt P03420) K465A”, the percent of parent amounted to 140 % WT.
As to “wildtype RSV F (RSV-A2) expressed on HEK-293T cells (from UniProt P03420) N388A”, the percent of parent is 87 % WT.
Still for that read-out and setting: under “wildtype RSV F (RSV-A2) expressed on HEK-293T cells (from UniProt P03420) N426A” stands 290 % WT.

Source of the values: publication PMC4892554.
